Reference: patent WO2021173674A1

How the values were obtained:
[1] = molecular target: HLA-A*02 complexed with EPS8L2 339-347 (…) on cells; assay: cell-based or functional assay
[2] = molecular target: HLA-A*02 complexed with MAGE-A12 112-120 (…) on cells; assay: cell-based or functional assay

fold decrease in potency in Jurkat/T2 cell assays, against the on-target MAGE-A3 peptide [1]: 500 fold
potency in Jurkat/T2 cell assays, against the on-target MAGE-A3 peptide [2]: 10 fold
Substance: A118T TCR (MAGE-A3 112-120 clinical TCR)
EC50 in primary human T cell cytotoxicity on peptide-loaded MCF7 cells, against the on-target EC50 [1]: < 10 fold
